Results on three molecules are retold here after US10925928B2, “Method for treating chemotherapy-induced male infertility” (THE BOARD OF REGENTS OF THE UNIVERSITY OF TEXAS SYSTEM, priority 2013, dated 2021).

Data set [1] relates to rhesus macaques. Description: Meta-analysis of ejaculated sperm counts in rhesus macaques after busulfan chemotherapy with or without G-CSF. Type of data set: in vivo, rhesus macaque. The source says: FIG. 1. Timeline for rhesus macaque granulocyte colony stimulating factor (G-CSF) and chemotherapy administration. FIG. 1 illustrates the timing of experimental administration of G-CSF and busulfan alkyating chemotherapy in the context of a study testing spermatogonial stem cell transplantation. Male rhesus macaques were used as recipients for spermatogonial stem cell transplantation after busulfan treatment. In order to restore the hematopoietic system after busulfan chemotherapy, autologous transplants of hematopoietic stem cells harvested from the peripheral blood (PBSCs) following G-CSF mobilization were used. Animals received daily subcutaneous injections with the cytokine G-CSF (and in some cases, also SCF) for six days to mobilize hematopoietic stem cells from the bone marrow into the general circulation. […] Animals were monitored closely for hematopoietic deficits with weekly (or more frequent) complete blood count (CBC). […] Weekly ejaculated sperm counts measured the effect of busulfan on spermatogenesis and the progression of spermatogenic recovery after transplant. […]
Animals received daily subcutaneous injections with the cytokine G-CSF for 6 days to mobilize hematopoietic stem cells from the bone marrow into the general circulation. […] Animals were monitored closely for hematopoietic deficits with weekly (or more frequent) complete blood count (CBC). […]

The subject of data set [2] is C57BL/6 mice. Description: Mouse testis weight and histological evaluation of spermatogenesis two months after busulfan +/- G-CSF. In kind it is in vivo. The protocol:
(§1) FIGS. 3A-3D. This study evaluated the chronic and acute effects of G-CSF treatment on susceptibility to cytotoxic damage by busulfan alkylating chemotherapy. (A) Five-week old C57BL/6 mice were treated with a sterilizing dose of busulfan (44 mg/kg) on day 0. Some busulfan-treated mice also received injections of recombinant human G-CSF (50 μg/kg/day) on days −2 through 4 (seven days total, see group 3 in B). (B) 3 animals were used for each of three treatment groups as shown. Animals in group 1 served as an “untreated” control group (received 0.1% BSA/DPBS and DMSO vehicles only), while those in group 2, which received only busulfan (plus 0.1% BSA/DPBS vehicle), served as positive controls for busulfan cytotoxicity. Animals in the experimental group 3 received both busulfan and daily G-CSF injections. (C) 8-10 weeks after treatment, some of the mice were euthanized and testes removed for histological evaluation of spermatogenesis. (D) In an “acute” study, testes were removed on day 5 of the experiment (one day after the last G-CSF treatment, dark triangle). These testis tissues were used for immunohistochemical analysis of undifferentiated spermatogonia (PLZF) and apoptosis (activated Caspase 3 and TUNEL, see FIGS. 10-12).
FIG. 4. Mouse testis weights 2 months after busulfan treatment +/−G-CSF. Two months after treatment, testes were removed from the treated mice and weighed. […] But, testis weights from animals treated with busulfan+G-CSF were not different from those treated with busulfan+vehicle. Statistical significance was determined by a student's T-test.
FIGS. 5A-5F. […] Tiled brightfield images of H&E-stained sections of mouse testes from (A) group 1 (DMSO+vehicle), (B) group 2 (busulfan+vehicle), and (C) group 3 (busulfan+G-CSF). Dashed box inset indicates the area shown in D-F. Scale bars=500 μm. Enlarged images of the dashed boxes in A-C are shown in (D-F), respectively. Scale bars=50 μm. Filled arrowheads=seminiferous tubules with spermatogenesis. Open arrowheads=no spermatogenesis.
FIGS. 6A-6B. Quantitatively more mouse spermatogenesis was observed after busulfan treatment when mice received G-CSF treatment. Seminiferous tubule cross-sections from mice treated as shown in FIG. 5 were systematically counted and categorized as containing complete spermatogenesis (complete), up to round spermatid stage (round spermatids), up to primary spermatocytes (1° spermatocytes), or containing no spermatogenesis (empty or Sertoli cell-only). (A) The percentage of all seminiferous tubule cross-sections counted from all animals in each group which fall in the four categories is shown. […] (B) The same data presented in A are combined by group to show the percentage of seminiferous tubules containing any spermatogenesis or no spermatogenesis (empty bar segment). […] Statistically significant results (p<0.05) were determined by Tukey-Kramer ANOVA.
The results of meta-analysis of the rhesus macaque busulfan studies prompted additional studies in mice to (1) replicate the results observed in rhesus macaques and (2) determine whether G-CSF could act directly upon testicular germ cells to prevent male infertility after busulfan treatment. In the first experiment, 5 week-old C57BL/6 mice were treated with G-CSF for one week (50 μg/kg/day) and administered busulfan (44 mg/kg) on day 3 (see FIG. 3), mimicking the approach used to administer G-CSF in rhesus monkeys. Two months after completing G-CSF treatment, the mice euthanized and their testes removed. […] The testes were then analyzed histologically (FIG. 5) to determine if G-CSF treatment affected the degree of spermatogenesis after busulfan treatment. Unlike control testes, in which most tubules contained complete spermatogenesis (FIGS. 5A and D), many tubules were devoid of germ cells (empty or Sertoli cell-only) in animals treated with busulfan (FIGS. 5B-C and E-F).

The subject of data set [3] is C57BL/6 mice. Put plainly: Acute mouse study: immunohistochemistry of undifferentiated spermatogonia (PLZF) and apoptosis 5 days after busulfan +/- G-CSF. Type of data set: in vivo. To be noted: five days after busulfan treatment. The protocol: as §1
FIG. 10. […] The numbers of PLZF+spermatogonia in stained testis sections from mice treated as in FIG. 3 and analyzed as in FIG. 3D are shown. […] Statistical significance was determined by student's T-test.
FIG. 11. […] Despite increased numbers of PLZF+spermatogonia in busulfan-treated animals that also received G-CSF (FIG. 10), the proportions of PLZF+spermatogonia that were positive for activated Caspase 3 (top) were not different between animals treated with G-CSF compared to busulfan alone (p=0.38).
FIG. 12. […] Despite increased numbers of PLZF+spermatogonia in busulfan-treated animals that also received G-CSF (FIG. 10), the proportions of PLZF+spermatogonia that were positive for TUNEL were not different between animals treated with G-CSF compared to busulfan alone (p=0.28).
Shown in FIG. 10 are the numbers of PLZF+spermatogonia in stained testis sections from mice treated as in FIG. 3. […] Statistical significance was determined by student's T-test.
Despite increased numbers of PLZF+spermatogonia in busulfan-treated animals that also received G-CSF, the proportions of PLZF+spermatogonia that were positive for activated Caspase 3 (FIG. 11) or TUNEL (FIG. 12) were not different between animals treated with G-CSF compared to busulfan alone (p=0.38 and p=0.28, respectively).

The subject of data set [4] is rhesus macaques. To be noted: 8-12 mg/kg busulfan without G-CSF; two animals; total sperm per ejaculate; cited from earlier work.
The test system of a further data set is irradiated mice. Conditions: G-CSF 100 μg/kg/day for 3 days prior to 5 Gy testicular gamma irradiation; measured 3 weeks later; cited from earlier work.
The mark [5] stands for this setting: 2 day pre-treatment and 5 day post-treatment with G-CSF 50 μg/kg, p<0.05 Tukey-Kramer ANOVA.

Entries after “also recorded” stand apart in the source; their conditions may differ.

“SCF: cytokine given in some cases in addition to G-CSF for mobilization of hematopoietic stem cells”: the “spermatogenic recovery, animal given SCF in addition to G-CSF compared with the other two G-CSF animals” value with rhesus macaques [1] (one monkey of the G-CSF group, data not shown) is given as “no apparent difference in spermatogenic recovery”.
`CS(=O)(=O)OCCCCOS(C)(=O)=O` [busulfan, reference compound]: the “spermatogenesis, busulfan alone compared to control animals” value with C57BL/6 mice [2] (busulfan 44 mg/kg, two months after treatment, histology of seminiferous tubule cross-sections) is reported as “significantly less spermatogenesis”. Besides, in the data set on C57BL/6 mice [2] (busulfan 44 mg/kg, two months after treatment, student's T-test), the “testis weights, busulfan-treated animals compared with controls” value is reported as “significantly smaller; also recorded: significantly reduced”. Also, the “numbers of PLZF+ spermatogonia per tubule, busulfan-treated groups compared with vehicle-treated animals” value with C57BL/6 mice [3] (student's T-test) was “significantly lower”. The “loss of spermatogenesis (azoospermia), mean sperm counts” value in the data set with rhesus macaques [4] is “loss of spermatogenesis (azoospermia) for at least one year”.

B1: granulocyte colony-stimulating factor (protein, UniProt P09919 31-207, looked up)
Granulocyte …: TPLGPASSLPQSFLLKCLEQVRKIQGDGAALQEKLVSECATYKLCHPEELVLLGHSLGIPWAPLSSCPSQALQLAGCLSQLHSGLFLYQGLLQALEGISPELGPTLDTLQLDVADFATTIWQQMEELGMAPALQPTQGAMPAFASAFQRRAGGVLVASHLQSFLEVSYRVLRHLAQP
notes: protein produced from the gene encoding colony-stimulating factor 3; known by trade names neupogen, neulasta, filgrastim
On to B1, for which, in the data set on C57BL/6 mice [2] (setting [5]), the “empty seminiferous tubules, G-CSF + busulfan compared with busulfan alone” value is “significantly fewer; also recorded: significantly less”; the “seminiferous tubules containing complete spermatogenesis, G-CSF + busulfan compared with busulfan alone” value is “significantly more”; the “tubules with any degree of spermatogenesis, G-CSF + busulfan compared with busulfan alone” value was “significantly more”. In addition, the “testis weights, busulfan + G-CSF compared with busulfan alone” value in the data set on C57BL/6 mice [2] (G-CSF 50 μg/kg/day for seven days, busulfan 44 mg/kg, two months after treatment) is listed as “not different; also recorded: did not differ significantly”. In the data set on C57BL/6 mice [2] (histological analysis, G-CSF 50 μg/kg/day, busulfan 44 mg/kg, two months), the “recovery of spermatogenesis after busulfan treatment, G-CSF compared with controls” value is “significantly better recovery of spermatogenesis”. Besides, the “proportion of PLZF+ spermatogonia positive for activated Caspase 3, G-CSF compared to busulfan alone” value with C57BL/6 mice [3] (early apoptosis, p=0.38) was “not different”. In the data set with C57BL/6 mice [3] (p=0.035, student's T-test), the “number of PLZF+ spermatogonia per tubule cross-section, G-CSF + busulfan compared with busulfan alone” value is reported as “significantly higher”. In the data set on C57BL/6 mice [3] (late apoptosis, p=0.28), the “proportion of PLZF+ spermatogonia positive for TUNEL, G-CSF compared to busulfan alone” value was “not different”. Moreover, the “time at which spermatogenesis recovered after busulfan treatment” value in the data set on rhesus macaques [1] (8-11 mg/kg busulfan plus G-CSF mobilization and PBSC transplants, three animals, endogenous spermatogenesis) is listed as at least 20 weeks. In the data set on irradiated mice, the “numbers of surviving differentiated spermatogonia following sub-sterilizing irradiation” value is reported as “modest improvement”.
